These results are taken from PMC9251544.

For this assay, the target named is 3×HA-xtMc1r (Xenopus tropicalis melanocortin 1 receptor) (Xenopus tropicalis).

Turning to ACTH peptide, the EC50 of ACTH in the cAMP luciferase reporter assay (pCRE-luc, HEK293T), xtMc1r:xtMrap1 plasmid ratios 1:0 to 1:6; EC50 from 1.171 × 10^−9 M (1:3) to 7.006 × 10^−9 M (1:0) was 7.01e-09 M and the EC50 of ACTH in the cAMP luciferase reporter assay (pCRE-luc, HEK293T), xtMc1r:xtMrap2 plasmid ratios 1:0 to 1:6; EC50 from 1.513 × 10^−9 M (1:6) to 7.150 × 10^−9 M (1:0) came out at 7.15e-09 M.

Turning to “alpha melanocyte-stimulating hormone (α-MSH) peptide”, the EC50 of α-MSH in the cAMP luciferase reporter assay (pCRE-luc, HEK293T), xtMc1r:xtMrap1 plasmid ratios 1:0 to 1:6; EC50 from 6.906×10^−10 M (1:6) to 2.806 × 10^−9 M (1:0) came out at 2.81e-09 M and the EC50 of α-MSH in the cAMP luciferase reporter assay (pCRE-luc, HEK293T), xtMc1r:xtMrap2 plasmid ratios 1:0 to 1:6; EC50 from 7.550 × 10^−10 M (1:3) to 2.036 × 10^−9 M (1:0) worked out at 2.04e-09 M.
